Data on 4 molecules can be found in patent publication US20200172626A1 (EUTILEX, published 2020).

Positions count from the first letter of the chain named.

The target of test [1] is T1, human 4-1BB expressed on cells (human, UniProt Q07011 24-255). Nature of the test: cell-based or functional assay.
For test [2], the target named is T1, human 4-1BB expressed on cells. Put plainly: FACS on anti-CD3-activated human CD8+ T cells, antibody at 25 ng/ml. The method, then: CD8⁺ T cells were isolated from human PBMCs and activated with 1 μg/ml anti-CD3 antibody for 2 day. The ability of exemplary humanized anti-human 4-1BB antibodies (94K, 94 KV, 94KVT and EU101) described in Example 1 to detect a 4-1BB on the surface of activated […] T cells was assessed relative to an exemplary commercially available anti-4-1BB antibody (4-1BB-PE). Also shown is detection with a BBK-4 a murine anti-human 4-1BB antibody and a 94G1 reference humanized antibody. Treatment with 4-1BB antibodies was at a concentration of 25 ng/ml.
Exemplary antibodies were detected with an anti-mIgG-Dylight488 or anti-hIgG-Dylight488 as appropriate, and analyzed by FACS.

In test [3] the target is T2, human 4-1BB antigen (H4-1BB) (human, UniProt Q07011 24-186, limits assumed). Put plainly: ELISA of Fab in E. coli supernatant, binding divided by expression level; data not shown. The method, then: ELISA was performed the following day on a supernatant obtained by centrifugation at 12,000 rpm for 10 minutes at 4° C.
A Fab antibody prepared by substituting the constant heavy chain of pCOM-Fab94G1-L with the heavy chain of the backbone 94G1 on the improved 94G1 light chain was called 94/w. Thus, a 94/w variant includes an improved 94G1 light chain in which the 6th amino acid of LCDR3 is substituted with tryptophan (W) ([…]—SEQ ID NO: 4) and a 94G1 heavy chain. IPTG-induced expression in E. coli and ELISA of a 94/w Fab was used to determine binding affinity as described above. Using this method, it was determined that a 94/w Fab antibody has a binding activity 3.5 times higher than that of 94G1 (Fab antibody) (data not shown).
For orientation: An ELISA detects its analyte on a solid surface through an enzyme-linked reagent.

In test [4] the target is T2, human 4-1BB antigen (H4-1BB). Put plainly: SPR (Biacore 3000, CM5 chip), antibody captured on immobilized anti-human IgG, human 4-1BB antigen (H4-1BB) flowed over. From the text: In vitro binding affinity of exemplary engineered antibody EU101 as described in Example 1, along with that of a reference 94G1 humanized antibody were each determined by Biacore analysis. Anti-human IgG was immobilized on a CM5 chip, and coupled to the Fab antibodies prepared above by flowing over the chip, and ultimately reacted with a human 4-1BB antigen (H4-1BB) to measure the binding activity between the antibody and the antigen (Biacore3000, sensor chip CM5). Ka (1/Ms) and Kd (1/s) values represent how fast an antibody associates with and dissociates from an antigen, respectively. A dissociation constant (KD) is obtain by dividing Kd by Ka (Kd/Ka=[…]).

The target of test [5] is T3, GST-4-1BB ECD fragment R2 fusion polypeptide (human, UniProt Q07011 76-130).
T3 construct: not shown: GST carrier at the N end (pGEX-6T, 27 kDa) and the vector-derived junction residues
Put plainly: western blot on GST fusion polypeptides. The method, then: Purified protein samples were obtained from transformed bacterial cells by a lysis buffer (e.g., 10 mM Tris-HCl—pH 7.4, 50 mM NaCl, 5 mM EDTA, 30 mM NaF, 0.1 mM Na3VO4, 1% Triton X-100, 0.5% Nonidet P-40, 1 mM PMSF, and protease inhibitor mixture). Approximately 20 μg of each fusion polypeptide sample was diluted in a 4×SDS sample buffer, subjected to electrophoresis on SDS-PAGE gels, and then transferred to nitrocellulose membranes (Millipore, Bedford, Mass.). On the cellulose membranes, anti-human 4-1BB mAb was reacted with anti-mouse IgG horseradish […] (HRP). Binding antibodies were recognized by enhanced chemiluminescence (ECL) (Amersham Pharmacia Biotech, Little Chalfont, UK).
As described above and shown in FIG. 1B, when each of three non-overlapping H4-1BB ECD fragment-GST fusion polypeptides, R1, R2, and R3, were treated with GST-binding, respectively. It was determined that an exemplary humanized anti-4-1BB antibody encompassed by the present disclosure (EU101) binds to an N-terminal fragment construct (R1) fusion construct of approximately 32 kDa (amino acids 1 to 55 of 4-1BB) by western blotting.

Test [6] has as its target T4, GST-4-1BB ECD fragment R1.1 fusion polypeptide (human, UniProt Q07011 21-65).
T4 construct: not shown: GST carrier at the N end (pGEX-6T, 27 kDa) and the vector-derived junction residues
T4 chain: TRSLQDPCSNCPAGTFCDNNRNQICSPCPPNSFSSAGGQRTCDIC
Nature of the test: western blot on E. coli whole cell extracts (FIG. 2B). The method, then:
(§1) FIG. 2A depicts an SDS-PAGE gel of whole cell extracts from cells expressing 4-1BB ECD fusion constructs. Fusion constructs as described above in FIG. 2A were expressed in E. coli BL21 cells induced with 1 mM IPTG, and whole cell extracts resolved by 12% SDS-PAGE. As shown, all fusion constructs (ECD, R1, R1.1, R1.2, R1.3, R1.4, R1.5, and R1.6) have robust protein expression. FIG. 2B depicts a western blot showing binding of an exemplary humanized anti-4-1BB antibody to full length 4-1BB ECD fusion polypeptide, and R1.1, R1.2, R1.3, and R1.6 fusion polypeptides, but not to the R1.4 or R1.5 fusion polypeptides. Immunoblots were performed with an exemplary anti-human 4-1BB antibody. Molecular size markers are indicated in kDa on the left.
(§2) SDS-PAGE was transferred to a nitrocellulose membrane and immunoblotting was performed using an exemplary anti-human 4-1BB antibody, EU101. […] It was also confirmed that a sequence including amino acids 35 to 50 of the 4-1BB extracellular domain is […] for binding an exemplary humanized antibody described herein (FIG. 2B).

In test [7] the target is T5, GST-4-1BB ECD fragment R1.2 fusion polypeptide (human).
T5 construct: not shown: GST carrier at the N end (pGEX-6T, 27 kDa) and the vector-derived junction residues
T5 chain: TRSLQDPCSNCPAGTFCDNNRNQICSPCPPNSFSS
The test is described as above. The method, then: as §1, §2

Test [8] concerns the target T6, GST-4-1BB ECD fragment R1.3 fusion polypeptide (human, UniProt Q07011 31-75).
T6 construct: not shown: GST carrier at the N end (pGEX-6T, 27 kDa) and the vector-derived junction residues
T6 chain: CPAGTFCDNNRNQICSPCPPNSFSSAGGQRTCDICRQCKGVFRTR
The test is described as above. The method, then: as §1, §2

Test [9] addresses T7, GST-4-1BB ECD fragment R1.6 fusion polypeptide (human, N-terminal GST fusion, not written).
T7 construct: not shown: GST carrier at the N end (27 kDa, pGEX-6T) and the vector-derived residues at the BamHI/XhoI junctions
T7 chain: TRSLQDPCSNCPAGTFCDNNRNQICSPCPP
Described as above. The method, then: as §1, §2

Test [10] deals with T8, GST-4-1BB ECD fragment R1.4 fusion polypeptide (human).
T8 construct: not shown: GST carrier at the N end (pGEX-6T, 27 kDa) and the vector-derived junction residues
T8 chain: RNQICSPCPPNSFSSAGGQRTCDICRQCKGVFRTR
Nature of the test: western blot on E. coli whole cell extracts with GST fusion polypeptides. The method, then:
as §1, §2
(In general: In western blotting, separated proteins are transferred to a membrane and probed.)

T1 sequence (Q07011 24-255 limits assumed): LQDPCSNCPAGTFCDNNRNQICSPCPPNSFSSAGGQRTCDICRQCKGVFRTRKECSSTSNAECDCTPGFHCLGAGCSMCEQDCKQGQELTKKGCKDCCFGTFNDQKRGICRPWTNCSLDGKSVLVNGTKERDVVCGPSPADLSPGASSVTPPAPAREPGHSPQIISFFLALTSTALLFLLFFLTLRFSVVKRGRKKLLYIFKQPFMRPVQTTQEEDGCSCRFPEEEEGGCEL

B1: 94KVT (full length 94KVT/w antibody) (antibody, human IgG1)
heavy: not shown
VL: DIVMTQSPAFLSVTPGEKVTITCRASQTISDYLHWYQQKPDQAPKLLIKYASQSISGIPSRFSGSGSGTDFTFTISSLEAEDAATYYCQDGHSWPPTFGQGTKLEIK
notes: Full length IgG1
Turning to B1, in test [1], the “IFNgamma secretion by anti-CD3-treated CD8+ T cells, 1.0 ug/ml antibody, day 5, against the control group” value stood at 13 fold. Also, the “percent of CD8+ T cells on which 4-1BB was detected” value (“percent of CD8+ T cells” below) in test [2] worked out at 25.3%.

B2: 94/w Fab antibody (Fab, V domains shown)
VH: QVQLQQSGAEVKKPGASVKLSCKASGYTFSSYWMHWVRQAPGQGLEWIGEINPGNGHTNYNEKFKSRATMTRDTSTSTAYMELSSLRSEDSAVYYCARSFTTARAFAYWGQGTLVTVSS
VL: B1 VL
notes: Fab expressed in E. coli TG1 from a pComb3H-derived vector and tested as culture supernatant; also called 941w
On to B2, for which the “binding activity as fold of 94G1 (Fab antibody)” value in [3] worked out at 3.5 fold.

B3: 94G1 reference humanized anti-human 4-1BB antibody (antibody, V domains shown)
VH: B2 VH
VL: B1 VL with W94F
One may read the Kd as the concentration at which binding is half-saturated. Broadly, the koff is the first-order rate constant of dissociation. For B3, the “percent of CD8+ T cells” value in test [2] was found to be 17.9%. In addition, in test [4], the dissociation constant Kd amounted to 0.602 nM and the koff stood at 0.000118 s⁻¹.

B4: EU101 (antibody, human IgG1, L234A L235A)
heavy: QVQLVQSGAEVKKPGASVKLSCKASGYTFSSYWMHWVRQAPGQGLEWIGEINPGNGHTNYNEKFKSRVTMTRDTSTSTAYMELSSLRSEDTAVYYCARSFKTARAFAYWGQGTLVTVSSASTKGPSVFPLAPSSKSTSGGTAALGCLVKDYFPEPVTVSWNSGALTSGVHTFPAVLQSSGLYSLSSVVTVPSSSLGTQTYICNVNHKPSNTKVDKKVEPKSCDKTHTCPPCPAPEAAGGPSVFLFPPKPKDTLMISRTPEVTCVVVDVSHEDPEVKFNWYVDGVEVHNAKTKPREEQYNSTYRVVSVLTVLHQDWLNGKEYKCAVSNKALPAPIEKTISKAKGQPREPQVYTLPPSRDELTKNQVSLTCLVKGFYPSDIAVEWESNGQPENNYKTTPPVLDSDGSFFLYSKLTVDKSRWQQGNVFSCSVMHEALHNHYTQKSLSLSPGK
VL: B1 VL
notes: Full length antibody with the 94KVT/w variable domains and a variant IgG1 constant domain; The light chain constant domain is not tied to EU101; also called exemplary humanized anti-4-1BB antibody; exemplary anti-human 4-1BB antibody (EU101)
B4: the “IFNgamma secretion by anti-CD3-treated CD8+ T cells, 1.0 ug/ml antibody, day 5, against the control group” value in test [1] stood at 13 fold. The binding result in [5] is reported as “no binding”; in test [6] it was “binds”; in [7] it was “binds”; in test [8], “binds”; in [9], “binds”; in [10] it was “no binding”. The “percent of CD8+ T cells” value in test [2] was 28.3%. Moreover, the Kd in [4] is 0.0636 nM. This molecule also showed a koff in test [4] of 1.8e-05 s⁻¹.
